In patent publication US20220048948A1 (REGENTS OF THE UNIVERSITY OF MINNESOTA, published 2022):
No end group written: not given here.

How the values were obtained:
[1] = target: T1, FLAG-tagged rhsCD40 (Alexis) (human, UniProt P25942 21-193, limits assumed); experiment: ELISA, peptide and FLAG-tagged rhsCD40 (1 ug/ml), detected with HRP anti-FLAG antibody, TMB, OD 450 nm
T1 construct: Bought reagent (Alexis); also called recombinant human CD40; human CD40; not shown: FLAG tag
Protocol: Binding of the identified peptides to CD40 was analyzed by ELISA. Briefly, plates were coated with […] and then incubated with identified peptides and detected using Flag-tagged rhsCD40.
In order to confirm the specificity of the peptides to interfere with CD40:CD154 interaction, the specificity of peptides 1-7 as listed in table 1 to bind to human […] by ELISA was tested. Briefly, 96 well ELISA (Nunc Immunolon) plates were coated with the peptides in carbonate buffer. The wells are washed and probed with FLAG-tagged rhsCD40 (1 μg/ml; Alexis) and developed with HRP conjugated rabbit anti-FLAG antibody. The plates were washed and the enzymatic activity was determined using 3,3′,5,5′-tetramethyl-benzidine substrate for 15 minutes and the reaction was stopped by the addition of 2 M H2SO4, and optical density was measured at 450 nm, with the correction wavelength set at 620 nm.

[2] = target: CD40 on Rhesus macaque peripheral blood mononuclear cells / B cells (Rhesus macaque, UniProt F6SNI1 21-278); experiment: cell-based or functional assay

T1 sequence (P25942 21-193 limits assumed): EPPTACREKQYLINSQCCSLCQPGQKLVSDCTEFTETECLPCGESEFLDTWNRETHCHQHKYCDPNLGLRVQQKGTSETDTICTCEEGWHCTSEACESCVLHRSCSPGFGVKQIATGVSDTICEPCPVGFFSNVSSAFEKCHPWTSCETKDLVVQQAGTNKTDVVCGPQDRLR

B1: Peptide 3 (peptide)
peptide: VVQWAEKGFFTMSNN
modifications: also: also made with a fluorescent label, dye and site not given here
- binding result [1]: binds
- MHC class II expression on B cells after activation with recombinant hCD40L, peptide at 30 µM [2]: 50 % reduction

B2: Peptide 2 (peptide)
peptide: VLQWAERGFYTTSNN
modifications: also: also made with a fluorescent label, dye and site not given here
- binding result [1]: binds
- MHC class II expression on B cells after activation with recombinant hCD40L, peptide at 30 µM [2]: 50 % reduction

B3: Peptide 5 (peptide)
peptide: LVNWADKAFYTTSNN
modifications: also: also made with a fluorescent label, dye and site not given here
- binding result [1]: binds
- MHC class II expression on B cells after activation with recombinant hCD40L, peptide at 30 µM [2]: 50 % reduction

B4: Peptide 1 (control CD40-binding peptide) (peptide)
peptide: VLQWAEKGYYTMSNN
modifications: also: also used fluorescently labelled (dye and position not given here), called cyclic, no cyclisation chemistry given
notes: also called control Peptide 1
- binding result [1]: binds
- MHC class II expression on B cells after activation with recombinant hCD40L, peptide at 30 µM [2]: 50 % reduction

B5: Peptide 7 (peptide)
peptide: VVQWAEKGYYTMSQN
modifications: also: also made with a fluorescent label, dye and site not given here
- binding result [1]: binds
- MHC class II expression on B cells after activation with recombinant hCD40L, peptide at 30 µM [2]: 50 % reduction

B6: Peptide 6 (peptide)
peptide: LLQWAERGYFMTSNN
modifications: also: also made with a fluorescent label, dye and site not given here
- binding result [1]: binds
- MHC class II expression on B cells after activation with recombinant hCD40L, peptide at 30 µM [2]: 50 % reduction

B7: Peptide 4 (peptide)
peptide: VLNWADKAYFTMSQN
modifications: also: also made with a fluorescent label, dye and site not given here
- binding result [1]: binds
- MHC class II expression on B cells after activation with recombinant hCD40L, peptide at 30 µM [2]: 50 % reduction
